From paper PMC9512702
Where “and” joins values, the source holds several entries; their conditions need not be identical. Equal entries are not always repeated.

Columns and labels:
[1] = target: mammalian expressed RBD (mRBD) of SARS-CoV-2 spike (SARS-CoV-2), P0DTC2; assay: SPR
SIH-11 = assay: AUC
SIH-13 = assay: AUC
SIH-7 = assay: AUC

Work on DKEWILQKIYEIMRLLDELADAEASMRVSDLIYEFMKK (designed binder, modifications not checked) [SIH-11] yielded a Kd [1] of 1.3 nM and a stoichiometry N (SIH-11) of 3.2.

DKEWILQKIFEIMRLLDELADAEASMRVSDLIYEFMKK (designed binder, modifications not checked) [SIH-13] was tested, and the Kd [1] was 1.6 nM and the stoichiometry N (SIH-13) was 9.5 and 17.7.

DKEWILQKIFEIMRLLDELADAEASMRVSDLIYEFMKK (designed binder, modifications not checked) [SIH-7] was tested, and the Kd [1] was 2.9 nM and the stoichiometry N (SIH-7) was 4.1 and 7.9.
